Publication PMC11215305

Molecular target: RadD of F. nucleatum subsp. nucleatum ATCC 23726 (Fusobacterium nucleatum subsp. nucleatum ATCC 23726 (endogenous))
Experiment: flow cytometry on cells

human Siglec-7-Ig (from UniProt Q9Y286 19-353) (Fc fusion)
percent reduction of binding with 5 mM arginine: 31%
